In the domain aggregation screens of Martell et al. (2025):

Assay: soluble fraction after stress (log2 fold change); higher = more stays soluble; pooled small domains, quantitative proteomics
Conditions: stress: 75 degC
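Further: 20 min heating vs room temperature control held 20 min.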

Sequence	soluble fraction (log2)
HMDSEQLSGLVNMGFSVYQAKTALEMFDNDIERAANYL	-0.478
HMDSERTALLSSDRTSFTAREAALLIGVSQRDIYRMIEDELLDSFTVGKMIRIRRSALEWWLS	-2.93
HMDSFEEGTYRKNQRGFGFVKIENQEDEIFISKENSLNALNGDRVIVEIIEDKDRTKRAEGKIKKILKHE	0.531
HMDSGLLSAREREVAGLVLSGMTYAEIGEAIFISPRTAEHHIARIRRRLGATSRTDLIAKLQAIVGID	-3.41
HMDSGVPEWLASALRASPVAWKNFLALPPSHQRRYVGWISSARRDETRNRRIAEAISLLVEHKRLG	-2.18
HMDSIKDQIYQILKEDILTGELRSGEQLVEQTIAARFNTSRSPVREAIKQLTGDGLVINITNKGTFVK	0.227
HMDSISEQIYSIIKEEILLAKRKPGEQINPRKLADEFETSVMPIRDALNQLANEGLVIRKPRVGFFVR	-0.501
HMDSITEADLLRWAHALSGIARTGLGFTESRYERERYEEVLAVAADILAASSRSHDRAALVDEWLKMVGV	-2.03
HMDSKKNLLGKNGLAFTTLRPAGTVLIDGQRHDVISNGDMIPKGATVRVIAIEGASITVEALPD	0.0814
HMDSMATVPDLVGKTEDEAKALANDAHLGVQMAGEEASDQEKGKISRQETAAGTQVAEYTTVKYWVSTGTQ	0.763
HMDSPALAIPSSAILRDGLEHIFFRQDPSDPDQVIRVVADLGLSDGRWTVVRSGLERTDQVVLSGA	0.181
HMDSQKKNETLSSTADEIIKNYAGKRDLSEESMEQLEQFQKDMRGADVNIFTAAQIRMLDQIFQENLH	0.221
HMDSSLVWVDYLLGSKLTKLNSSNELTGPGASAKTIGAFLGENKQSFDLYIESVHNARDTYSDILTHGT	-0.186
HMDSSSYSAKVGTLIQETRQARGMTQAQLAQALGTSQSAINRIEKGGQNISLDMLNRISEVLSSQIVTLNP	-0.0411
HMDSVAKSFLAEIERFLETAGLEPTTLGKQALGDPSFVFDLRKGRSPSTRTIGKLRVWMQQQNALS	-1.34
HMDSVTLGISFNGKTRFTLDFPADAAAADIEKAALEAEQSQRYLEGMTVAKVIVVPGRIVNIVLK	-2.23
HMDSVTMYATTGVNVRSGPSTSYSIVGGLDRGDKVTRIGTSGNWTKVVWGNGSAYVFSKYLQTGY	-3.04
HMDTAEQNWRLRGKLVTLGLNARQIRMALASHAPRYLEDNIAVVERDLAAGKVRNLPAYLLAALREDYRP	-1.86
HMDTEIGDILALRQIMELLDEKDRQLIIMRYFQGLTQSVTAKNLNMTQVQVSRREKKLLTFMREQLL	-0.702
HMDTEVVMINVVGMNIDKAKNSLNHKNILYKISYQDVSEGENNVVLKQSISSNTKIKKGQVVSLVVGKLN	-1.42
HMDTFEITVEESDIDKRIDLFLAGNLESFSRSYIQDLIKKGKATISGKPVKANYRLREGDSVVLSIPKPK	-0.209
HMDTGKLQSLVGSRGVAHTVLRPSGKVMIGDDVYPAVAETGFIPRGTAIVVRREEQGQLYVVEARK	-0.318
HMDTGPISGQVEADRVEVHGHLDGKISAQNVVVGQTGVVKGDIEFGENLRTEEGADIEGYIK	0.0611
HMDTGPSFATRRQEAFNALTQIAASNKEFMNVAGDVLWKVADFPEAQILAQRWRRIIPPNVLGEA	-0.465
HMDTIAEFIAELTPLEQKVFHVYYEKGQSLKDTAQQAEITSTSARGALDRIRAKGRHFHLAVILFIG	-0.7
HMDTINEYERNILSLITSKPGISAVQIAADTDKSIITAKRGIKTLVDGKLIEYRGSKKTGGYFLLTQS	-0.41

Sequence	soluble fraction (log2)
HMDTIYMVVAKNIKYYRLIKSMSKKDLAEAVNVTPMAISNYENGKRKPEIDILKKIANVLGVRVVDFLTVR	-4.45
HMDTKLFNYGVGKHAYISWNEGGKRTAYIGFGNDGADVLTINNVKQGGSLGIYKDKITLNSQTVLTD	-0.038
HMDTLHGRILEEFSRKIVDGTWPPGFSLPKETELADQYGVSRMTMNKVLTRLASDGFVIRRKRSGTVVAQP	-1.34
HMDTLTRAMVWTIIARAEGVDTTGGATWYAKAQEWVTAKGISDGENPNAAITRQELVTMLYRLAGEPAV	-3.56
HMDTMQQESMDTKSILATALMELTSRKNFAKITIADITHVSGFNRQTFYYHFRDKYELLSWIY	-0.0387
HMDTNRIIGNKIYQLRRSINMTQQELAEKVGISVTFLSEIENGRKSMSVDTLIKLSKGLQVSLDTIVF	-4.31
HMDTPVYYYVNGNGVRMRKDASLESDILILLYKGTKVEYVDVKGEWIKVKYNNEIGYIRNDLLSAEMPD	-0.784
HMDTQITPNKAKEIALAHAGVTEAAANFKKIKLDNKNGKSIYEIEFIANKSRYEFIVDAKNGSIIKFEK	-0.378
HMDTRKEREIALYEAALRLIASGVNPAAMKVQQIADEAGIGKGTVYEYFASKEEILHGMALH	-0.218
HMDTTLFGLFQNVILTQEDYEELSRTIVEDLDGLIDRLSAYMTSTGKTYKNHKATLLSWYLQDEKKFK	-1.78
HMDTVEALTEQLKKLDKRGEGQIPAPEFKQYMMNMGGKMTAEELDEMMKVADPGKEGVVNIAEFADAL	0.313
HMDTVEFPVQVNGKVRGKITVAADAGKDAIETAALADEKVLAFLDGATPKKVIVVPGKLVNLVVQPG	0.62
HMDTVSYMSDAVKAGAVTPSHDEEARARYLLYAGFGAILLFLRYEASEPGDIESAIREFMERYGPVTAELY	0.347
HMDTYKGFIFEVVDKYFSPTLNQKIGQAKNKQGIVLLQTKPSFTQDPKVLIEELKLIIDRDNLKA	-1.07
HMDVAAQITYAMRTMGVAPIPRNYELFYEAYIGSNPALTKELAALGSKATQEELDELGQQYF	-1.89
HMDVFPDESLKAWLIEMGFKLDQKKMNVFTVLRRMLLQTAPSVKEFRILEIVLQQSRRKLKELNDLKKS	-0.00949
HMDVKQSAAGVAGRIRFELNRTLTGQGHEKFTSASQAIGPRPAAELARRLFNSGSVVGVHVFANIVTVDLL	0.136
HMDVLKMKVEDLNIGSRTVNSLTAAKIKTVAGLIKKSKESLLELDGMGNKGVEEIILALKKLGLEL	-1.08
HMDVPTEEAILAYNNVPIELAAKFIGWSDITIRYALQEERAPFGMAAQNPKTGTWSYNISPGLLLKYKSGE	-2.23
HMDVPVEVFMERIVTALREGRKTTFSELMEGKPERGKVIGTFLALLQLSKGQQIQIHQEQRTGEISIEGGA	-0.328
HMDVQTVTVIENVNVRKSASENGQKLGLAYTGEKLELLMKQADGWTRVKYNGETAYVKSDYV	0.372
HMDVTSLDMLRFLMDQHGLRQQDLSELGSQGVVSEILAGKRELNLRHIGALARRFKVPPEVFLPA	-0.778
HMDVYKRQKLRNFIESLFEDAPKNKQTIELKEEMLQNLIDKYNDLVDSGKSSEAAYNIATAS	0.131
HMDWNPVRDITAHQVLAILQATHIRAPTVAAEAKRTLSSIFQFAVATLRADIDPVWPVRNALPKNKT	-0.262
HMDYARYGLSEKEAELIELIAQGMNNKEISAEIYLSEGTVRNYISELLEKLELRDRTQLAVYYYTHR	-2.72
HMDYDDLVPLDARGRLRLDGQDIILAFGRHRGRSIEEVHNHDKSYFDWLVSPAGGLEDEVIATLRERF	-0.613

Sequence	soluble fraction (log2)
HMDYENGTVKWFNTKKGYGFITRENGEDLFVHFRNIKGRGRRSLNDGEPVTFVVIEGDKGLQADQVSA	-0.34
HMDYGSLQRAIENQLEVRNYQKPKKFLTKIIQLMETIMVRHGVMVVGLTGTGKTTVIETLSRSMEQ	-0.591
HMDYIGIQAAKEAALKDADISSEQAVFTMAELDNKNNIFYYQIMFTENGTEYRYDIDALTGVIIEKNHFF	-2.4
HMDYKLDVNFPEMYLEQIPAEKRAALIQILEQDPRPSYQKDPVRIYGMSYAGMEIHFRVDKETLYVTEVER	-1.06
HMDYLSEFITDKVVRADGYSIRKGELSNEFKQWFITNVGTKNPKPKEIHDYMDRKFGKNKNGIWKNVKIKL	-0.492
HMDYQEVEFEKLGKEILTKILLDINKKATKKTLKILIDGFNYDSYRSFYIAIGKAQISSDSILELLQH	-0.994
HMDYSWNFFIGFSVVDKVAGNLGTIEEIDDKTINTLFLVKNDDEDLIIPATEDFVEKIDAKKRILYLNLPE	-2.51
HMDYYASVDQVWRELGLAGPARRALIDDGLFKLSDLRKTSLAAVKELHGMGPNAIRILTTEMKKADLSFR	-2.15
HMDYYDTLGVPRNASQSDIKKAYKKQSMQHHPDRTGGDDTKFKDVNEAYQVLSNSEKKQMYDQFGTA	0.07
HMDYYNILGVNKAATAQDIKRAYRKLAKEHHPDHGGDATRLQQVNEAYDTLKDPQRREQYDS	0.215
HMEAADAGTLAQRAAQYFNEKNYAAALDALERRAAMAPETTELRMMRGWSLLHLNRKDEARNAFATLG	-0.101
HMEAAIRNALSRVENPDETQRARIYRTAHDALIRNLENRGITDPEQVRPQVSRLKDLISVIEREYHG	-0.131
HMEAALTLRVDKAGSLRSLLSDEQYAKTSKIIVSGEINTLDIKTLQEMSGEKGSLQSIDLSQANIVAY	0.0407
HMEAFELTPREKQVLQLLVQGKAYKIIAADLDITYDTVRAHIKKIYEKLHVGSMTEAVAKAIQHKL	-2.08
HMEAKKVIAVHIIGEINKPGIVELEEGARVIDAIKKAGGTTEKADLAQINLAYILKDGQKIYIPNTEDN	0.254
HMEALASESVKDKIRKIIDSEDPSRPMSDQRIKEMLKAANIDIARRTVTKYREAMNILSSTKRRQV	-0.432
HMEALDPLTAREQEVLEMILSGKSNREIAAELHITENTVKTHAQSIYSKYDVRGRAKLISLLLKGEA	-0.406
HMEALQKVSINYYDEGAGKQIAEVPLEVGAGDTEIALAVINKYMPAEYNLVSTDYQIRGGYVYVSVTPA	-0.49
HMEAPPHEALSNREFQVLQLLSQGRSVTQIAHQLTLSANTISTYRARIFDKLGLHNPADLYAYAARHGLM	-2.41
HMEAPWQEIKRQVMDGLDMSREFTDEELRERIALAVRSYSKEKLLSLKVRESYEEQIFNSFR	-1.05
HMEAQFIDINDVRIGTYVYVDLGWIKHPFALNSFKITSRDQIDTLIKLGVKRIRWSPEKSDS	-3.18
HMEARNDWAQQSRADAEFGGEKLDENLAVAKKAVEALASPELKTLLEQSGLGNHPEIIRLFYRAGRSLS	0.0741
HMEATILTATPEAAGQRLDAFLAETLPELTRSAAQRLIAEGQVAVDGKIPTKSLKLAGGETVSVRLPEPE	0.734
HMEAVIGGIYRHYKGNNYKLLAVATHSETLEKMAVYQALYGEMGIWVRPLAMFMETIEKDGQSLKRFE	-2.67
HMEDAWMKKELWDAIATLPKKQRLVMTMRLTNNHSYKEIAAILGISENSAKVSYHHAVERLKEKFK	-2.23
